From US20250277048A1 (Regeneron, published 2025)

How the values were obtained:
[1] = target: T1, human CD40 extracellular domain expressed with a C-terminal myc-myc-hexahistidine tag (human); test: SPR Biacore 4000, mAb captured, 25C
T1 construct: also called hCD40-MMH; hCD40-mmH
Procedure: (§1) The equilibrium dissociation constants (KD) for anti-CD40 bivalent and bispecific monoclonal antibodies (mAbs) were determined using a real-time surface plasmon resonance (SPR)-based Biacore 4000 biosensor. All binding studies were performed in 10 mM HEPES, 150 mM NaCl, 3 mM EDTA, and 0.05% v/v surfactant Tween-20, pH 7.4 (HBS-ET) running buffer at 25° C. and 37° C. The Biacore CM5 sensor surface was first derivatized by amine coupling with a monoclonal mouse anti-human Fc antibody (REGN2567) to capture anti-CD40 bivalent parental and anti-CD40×CD40 bispecific antibodies. Different concentrations of CD40 reagents, human CD40 extracellular domain expressed with a C-terminal myc-myc-hexahistidine tag (SEQ ID NO: 1114) (“hCD40-MMH”; REGN3094; SEQ ID NO: 53), monkey CD40 extracellular domain expressed with a C-terminal myc-myc-hexahistidine tag (SEQ ID NO: 1114) (“mfCD40-MMH”; REGN3097; SEQ ID NO: 54), and mouse CD40 extracellular domain expressed with a C-terminal myc-myc-hexahistidine tag (SEQ ID NO: 1114) (“mCD40-MMH”; REGN3098; SEQ ID NO: 55), at concentrations ranging from 3.7 nM to 100 nM or 3.3 nM to 90 nM in a series of 3-fold dilutions prepared in HBS-ET running buffer were injected at a flow rate of 30 μL/min for 4 minutes or 50 μL/min for 5 minutes. The dissociation of different CD40 reagents bound to anti-CD40 bivalent parental and anti-CD40×CD40 bispecific antibodies was monitored for 10 minutes in HBS-ET running buffer. At the end of each cycle, the anti-CD40 bivalent parental and anti-CD40×CD40 bispecific antibodies capture surface was regenerated using a 12 sec injection of 20 mM H₃PO₄.
(§2) The association rate (ka) and dissociation rate (kd) were determined by fitting the real-time binding sensorgrams to a 1:1 binding model with mass transport limitation using Scrubber 2.0c curve-fitting software. Binding dissociation equilibrium constant (KD) and dissociative half-life (t_{1/2}) were calculated from the kinetic rates as: KD(M)=kd/kₐ, and t_{1/2} (min)=[ln(2)/(60*kd)].

[2] = target: T2, human CD40 (hCD40) expressed on cells (human, UniProt P25942 21-277); test: cell-based or functional assay
[3] = target: T2, human CD40 (hCD40) expressed on cells; test: cell-based or functional assay; remark: listed apart in the source
[4] = target: T2, human CD40 (hCD40) expressed on cells; test: cell-based or functional assay; remark: listed apart in the source
[5] = target: T1, human CD40 extracellular domain …; test: SPR Biacore 4000, mAb captured, 37C
Procedure: as §1, §2

[6] = target: T2, human CD40 (hCD40) expressed on cells; test: cell-based or functional assay; remark: listed apart in the source
[7] = target: T2, human CD40 (hCD40) expressed on cells; test: cell-based or functional assay; remark: listed apart in the source
[8] = target: T3, monkey CD40 extracellular domain expressed with a C-terminal myc-myc-hexahistidine tag (monkey); test: SPR Biacore 4000, mAb captured, 25C
T3 construct: also called mfCD40-MMH; REGN3097
T3 chain: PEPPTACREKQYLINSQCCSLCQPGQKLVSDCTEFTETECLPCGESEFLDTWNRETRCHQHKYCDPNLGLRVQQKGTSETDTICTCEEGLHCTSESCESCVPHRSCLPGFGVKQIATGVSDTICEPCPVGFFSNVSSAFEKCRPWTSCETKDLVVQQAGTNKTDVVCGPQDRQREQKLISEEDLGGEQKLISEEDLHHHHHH
Procedure: as §1, §2

[9] = target: T4, mouse CD40 extracellular domain expressed with a C-terminal myc-myc-hexahistidine tag (mouse); test: SPR Biacore 4000, mAb captured, 25C
T4 construct: also called mCD40-MMH; REGN3098
T4 chain: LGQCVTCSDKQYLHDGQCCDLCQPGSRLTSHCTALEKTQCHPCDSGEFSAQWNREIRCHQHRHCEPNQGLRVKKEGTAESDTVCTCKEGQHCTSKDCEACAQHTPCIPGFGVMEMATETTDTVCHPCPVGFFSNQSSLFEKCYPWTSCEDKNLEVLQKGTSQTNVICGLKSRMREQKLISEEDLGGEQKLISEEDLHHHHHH
Procedure: as §1, §2

[10] = target: T4, mouse CD40 extracellular domain …; test: SPR Biacore 4000, mAb captured, 37C
Procedure: as §1, §2

T2 sequence (P25942 21-277): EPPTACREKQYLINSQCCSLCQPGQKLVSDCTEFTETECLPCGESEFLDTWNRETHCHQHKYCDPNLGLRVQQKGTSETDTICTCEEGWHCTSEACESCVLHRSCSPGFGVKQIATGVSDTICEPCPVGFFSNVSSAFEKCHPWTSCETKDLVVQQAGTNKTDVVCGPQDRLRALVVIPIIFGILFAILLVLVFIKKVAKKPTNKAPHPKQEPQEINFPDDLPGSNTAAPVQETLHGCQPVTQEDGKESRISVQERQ

Binder | 100 nM Ag Bound [1] [RU] | Kd [1] [pM] | koff [1] [s⁻¹] | kon [1] [M⁻¹ s⁻¹] | t1/2 [1] [h] | IC50, 10 nM hCD40L, THP-1 NFkB-luc [2] [pM] | Max % activation, no ligand, THP-1 NFkB-luc [2] [%] | Max % inhibition, 10 nM hCD40L, THP-1 NFkB-luc [2] [%] | % max blockade relative to no mAb, IL-6, donor 1 [3] [%] | % max blockade relative to no mAb, IL-6, donor 2 [3] [%] | % max blockade relative to no mAb, IL-6, donor 3 [3] [%] | % max blockade relative to no mAb, TNFa, donor 1 [4] [%] | % max blockade relative to no mAb, TNFa, donor 2 [4] [%] | 100 nM Ag Bound [5] [RU] | Kd [5] [pM] | koff [5] [s⁻¹] | kon [5] [M⁻¹ s⁻¹] | t1/2 [5] [h] | Max % activation, no ligand, Ramos NFkB-luc [7] [%] | Max % inhibition, 500 pM hCD40L, Ramos NFkB-luc [7] [%] | also measured
REGN16431 (bispecific antibody, human IgG4 S228P, kappa, D1 arm from 21519P2, D2 arm from 21520P2, common light chain; also called CD40xCD40 (21519 x 21520)) heavy 1: QLQLQESGPGLVRPSETLSLTCSVSGASMNTNNYYWGWIRQPPGKGLEWIGSGYYNGNTYYNPSLKSRVTISVDTSKNQFSLKLNSVTAADTAVYYCARQTPPRIIGSPNIWGQGTMVTVSSASTKGPSVFPLAPCSRSTSESTAALGCLVKDYFPEPVTVSWNSGALTSGVHTFPAVLQSSGLYSLSSVVTVPSSSLGTKTYTCNVDHKPSNTKVDKRVESKYGPPCPPCPAPPVAGPSVFLFPPKPKDTLMISRTPEVTCVVVDVSQEDPEVQFNWYVDGVEVHNAKTKPREEQFNSTYRVVSVLTVLHQDWLNGKEYKCKVSNKGLPSSIEKTISKAKGQPREPQVYTLPPSQEEMTKNQVSLTCLVKGFYPSDIAVEWESNGQPENNYKTTPPVLDSDGSFFLYSRLTVDKSRWQEGNVFSCSVMHEALHNHYTQKSLSLSLGK heavy 2: EVQLVESGGGLVQPGGSLRLSCAASGFTFGSYGMAWVRQAPGKGLEWVSAISGSGDYTNYADSVKRRFTISRDNSKNTLYLQMSSLRAEDTAVYYCAKEKTGTTGYLYSGMDVWGQGTTVTVSSASTKGPSVFPLAPCSRSTSESTAALGCLVKDYFPEPVTVSWNSGALTSGVHTFPAVLQSSGLYSLSSVVTVPSSSLGTKTYTCNVDHKPSNTKVDKRVESKYGPPCPPCPAPPVAGPSVFLFPPKPKDTLMISRTPEVTCVVVDVSQEDPEVQFNWYVDGVEVHNAKTKPREEQFNSTYRVVSVLTVLHQDWLNGKEYKCKVSNKGLPSSIEKTISKAKGQPREPQVYTLPPSQEEMTKNQVSLTCLVKGFYPSDIAVEWESNGQPENNYKTTPPVLDSDGSFFLYSRLTVDKSRWQEGNVFSCSVMHEALHNRFTQKSLSLSPGK light: not shown | 61.2 | 101 | 0.000149 | 1.47e+06 | 1.29 | 287 | 2 | 98 | 84 | 92.7 | 92.7 | 44.7 | 74.1 | 61.2 | 101 | 0.000149 | 1.47e+06 | 1.29 | 6 | 90 | % max blockade relative to no mAb, TNFa, donor 3 [4]: 70.4%; % max blockade relative to no mAb, IL-10, donor 1 [6]: 80.7%; % max blockade relative to no mAb, IL-10, donor 2 [6]: 86.9%; % max blockade relative to no mAb, IL-10, donor 3 [6]: 89.3%; IC50, 500 pM hCD40L, Ramos NFkB-luc [7]: 8.54e-11 M
REGN16432 (bispecific antibody, human IgG4 S228P, kappa, D1 arm from 30027P2, D2 arm from 21520P2, common light chain; also called CD40xCD40 (30027 x 21520)) heavy 1: EVQLVESGGGLVQPGGSLRLSCAASGFTFSSYAMNWVRQAPGKGLEWVSIISGTIGKTYYADSVKGRFTISRDNSKNTLYLQMNSLRGEDTAVYYCAKDTERDITGSPFDYWGQGTLVTVSSASTKGPSVFPLAPCSRSTSESTAALGCLVKDYFPEPVTVSWNSGALTSGVHTFPAVLQSSGLYSLSSVVTVPSSSLGTKTYTCNVDHKPSNTKVDKRVESKYGPPCPPCPAPPVAGPSVFLFPPKPKDTLMISRTPEVTCVVVDVSQEDPEVQFNWYVDGVEVHNAKTKPREEQFNSTYRVVSVLTVLHQDWLNGKEYKCKVSNKGLPSSIEKTISKAKGQPREPQVYTLPPSQEEMTKNQVSLTCLVKGFYPSDIAVEWESNGQPENNYKTTPPVLDSDGSFFLYSRLTVDKSRWQEGNVFSCSVMHEALHNHYTQKSLSLSLGK heavy 2: EVQLVESGGGLVQPGGSLRLSCAASGFTFGSYGMAWVRQAPGKGLEWVSAISGSGDYTNYADSVKRRFTISRDNSKNTLYLQMSSLRAEDTAVYYCAKEKTGTTGYLYSGMDVWGQGTTVTVSSASTKGPSVFPLAPCSRSTSESTAALGCLVKDYFPEPVTVSWNSGALTSGVHTFPAVLQSSGLYSLSSVVTVPSSSLGTKTYTCNVDHKPSNTKVDKRVESKYGPPCPPCPAPPVAGPSVFLFPPKPKDTLMISRTPEVTCVVVDVSQEDPEVQFNWYVDGVEVHNAKTKPREEQFNSTYRVVSVLTVLHQDWLNGKEYKCKVSNKGLPSSIEKTISKAKGQPREPQVYTLPPSQEEMTKNQVSLTCLVKGFYPSDIAVEWESNGQPENNYKTTPPVLDSDGSFFLYSRLTVDKSRWQEGNVFSCSVMHEALHNRFTQKSLSLSPGK light: not shown | 56.6 | 163 | 0.000125 | 769000 | 1.54 | 148 | 6 | 97 | 83.5 | 92 | 92 | 53.5 | 68.4 | 56.6 | 163 | 0.000125 | 769000 | 1.54 | 4 | 94 | % max blockade relative to no mAb, TNFa, donor 3 [4]: 69.1%; % max blockade relative to no mAb, IL-10, donor 1 [6]: 81.5%; % max blockade relative to no mAb, IL-10, donor 2 [6]: 94.5%; % max blockade relative to no mAb, IL-10, donor 3 [6]: 90.6%; IC50, 500 pM hCD40L, Ramos NFkB-luc [7]: 4.92e-11 M
21520P2 (antibody, human IgG4 S228P, kappa, V domains shown, parental bivalent anti-CD40 mAb; common light chain; also called H4sH21520P2) VH: EVQLVESGGGLVQPGGSLRLSCAASGFTFGSYGMAWVRQAPGKGLEWVSAISGSGDYTNYADSVKRRFTISRDNSKNTLYLQMSSLRAEDTAVYYCAKEKTGTTGYLYSGMDVWGQGTTVTVSS VL: not shown | 76.6 | 25100 | 0.0223 | 885000 | 0.00833 | 437 | 1 | 97 |  |  |  |  |  | 67.2 | 69900 | 0.0803 | 1.15e+06 | 0.00167 | 49 | 63 | 100 nM Ag Bound [8]: 10.1 RU; Kd [8]: 67700 pM; koff [8]: 0.203 s⁻¹; kon [8]: 3e+06 M⁻¹ s⁻¹; t1/2 [8]: 6 s; 100 nM Ag Bound [9]: -0.5 RU; 100 nM Ag Bound [10]: 0.2 RU; EC50, no ligand, Ramos NFkB-luc [7]: > 10000 pM; IC50, 500 pM hCD40L, Ramos NFkB-luc (three highest concentrations excluded, hook effect) [7]: 8.06e-11 M
